B1: human MPEG1 (Macrophage-expressed gene 1 / Perforin-2) soluble ectodomain, wild type (domain or fragment)
chain: KSGKPSGEMDEVGVQKCKNALKLPVLEVLPGGGWDNLRNVDMGRVMELTYSNCRTTEDGQYIIPDEIFTIPQKQSNLEMNSEILESWANYQSSTSYSINTELSLFSKVNGKFSTEFQRMKTLQVKDQAITTRVQVRNLVYTVKINPTLELSSGFRKELLDISDRLENNQTRMATYLAELLVLNYGTHVTTSVDAGAALIQEDHLRASFLQDSQSSRSAVTASAGLAFQNTVNFKFEENYTSQNVLTKSYLSNRTNSRVQSIGGVPFYPGITLQAWQQGITNHLVAIDRSGLPLHFFINPNMLPDLPGPLVKKVSKTVETAVKRYYTFNTYPGCTDLNSPNFNFQANTDDGSCEGKMTNFSFGGVYQECTQLSGNRDVLLCQKLEQKNPLTGDFSCPSGYSPVHLLSQIHEEGYNHLECHRKCTLLVFCKTVCEDVFQVAKAEFRAFWCVASSQVPENSGLLFGGLFSSKSINPMTNAQSCPAGYFPLRLFENLKVCVSQDYELGSRFAVPFGGFFSCTVGNPLVDPAISRDLGAPSLKKCPGGFSQHPALISDGCQVSYCVKSGLFTGGSLPPARLPPFTRPPLMSQAATNTVIVTNSENARSWIKDSQTHQWRLGEPIELRRAMNVIHGDGGGLS
B2: human MPEG1 soluble ectodomain, L425K mutant (domain or fragment)
chain: KSGKPSGEMDEVGVQKCKNALKLPVLEVLPGGGWDNLRNVDMGRVMELTYSNCRTTEDGQYIIPDEIFTIPQKQSNLEMNSEILESWANYQSSTSYSINTELSLFSKVNGKFSTEFQRMKTLQVKDQAITTRVQVRNLVYTVKINPTLELSSGFRKELLDISDRLENNQTRMATYLAELLVLNYGTHVTTSVDAGAALIQEDHLRASFLQDSQSSRSAVTASAGLAFQNTVNFKFEENYTSQNVLTKSYLSNRTNSRVQSIGGVPFYPGITLQAWQQGITNHLVAIDRSGLPLHFFINPNMLPDLPGPLVKKVSKTVETAVKRYYTFNTYPGCTDLNSPNFNFQANTDDGSCEGKMTNFSFGGVYQECTQLSGNRDVLLCQKLEQKNPLTGDFSCPSGYSPVHLLSQIHEEGYNHLECHRKCTLKVFCKTVCEDVFQVAKAEFRAFWCVASSQVPENSGLLFGGLFSSKSINPMTNAQSCPAGYFPLRLFENLKVCVSQDYELGSRFAVPFGGFFSCTVGNPLVDPAISRDLGAPSLKKCPGGFSQHPALISDGCQVSYCVKSGLFTGGSLPPARLPPFTRPPLMSQAATNTVIVTNSENARSWIKDSQTHQWRLGEPIELRRAMNVIHGDGGGLS
modifications: a glycan moiety attached to TMH-2 (residue not given)

Biological target: the molecule itself
Experiment: cryo-EM structure; soluble MPEG1 ectodomain, 2.0-2.5 mg/mL, 20 mM Tris-HCl pH 7.2, 0.3 M NaCl; single particle analysis; two hexadecameric rings stacked head to head (D16, C16 or C1 imposed)

Protein	stoichiometry N
B1	16
B2	16

Reference: PMC6753088, “The cryo-EM structure of the acid activatable pore-forming immune effector Macrophage-expressed gene 1” (Nature Communications, 2019)
